Source: article PMC7810988, “Inositol pyrophosphates promote the interaction of SPX domains with the coiled-coil motif of PHR transcription factors to regulate plant phosphate homeostasis”

Target: AtPHR1 MYB-CC (Arabidopsis thaliana, UniProt Q94CL7 222-358)
Assay: GCI; 4 C, 300 mM NaCl; GCI at 4 C: AtPHR1 in 20 mM HEPES pH 7.5, 300 mM NaCl; OsPHR2 in 20 mM HEPES pH 7.9, 200 mM NaCl. EMSA: LI-COR Odyssey kit buffer without optional components, 50 nM oligo, 30 min at room temperature, 5% TBE gel in 0.5x TBE
Conditions: protein: recombinant; tags: His6 N-terminal, TEV-cleaved (untagged); chain copies: 2; label: 5'-biotin on strand 1; blunt

AtPHR1 MYB-CC, sequence (Q94CL7 222-358): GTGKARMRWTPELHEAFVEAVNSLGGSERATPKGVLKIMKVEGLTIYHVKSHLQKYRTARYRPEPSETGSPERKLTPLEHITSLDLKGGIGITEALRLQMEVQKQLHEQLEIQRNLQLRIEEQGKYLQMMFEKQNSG

B1: pAtSPX1 biotin (dsDNA)
DNA 1: CAGAGAAAAAAGGATATTCTAATTAGAAACCTTAAGAATATTCTTTTTAATCCC
DNA 2: GGGATTAAAAAGAATATTCTTAAGGTTTCTAATTAGAATATCCTTTTTTCTCTG
- Kd: ~200 nM
